The target in data set [1] is HDAC1 (full-length, untagged) (UniProt Q13547 1-482). The data set is described as follows: crystal structure.
The data set “crystal structure” deals with the molecule itself. The data set is described as follows: crystal structure.

Chain of HDAC1 (full-length, untagged) (Q13547 whole entry): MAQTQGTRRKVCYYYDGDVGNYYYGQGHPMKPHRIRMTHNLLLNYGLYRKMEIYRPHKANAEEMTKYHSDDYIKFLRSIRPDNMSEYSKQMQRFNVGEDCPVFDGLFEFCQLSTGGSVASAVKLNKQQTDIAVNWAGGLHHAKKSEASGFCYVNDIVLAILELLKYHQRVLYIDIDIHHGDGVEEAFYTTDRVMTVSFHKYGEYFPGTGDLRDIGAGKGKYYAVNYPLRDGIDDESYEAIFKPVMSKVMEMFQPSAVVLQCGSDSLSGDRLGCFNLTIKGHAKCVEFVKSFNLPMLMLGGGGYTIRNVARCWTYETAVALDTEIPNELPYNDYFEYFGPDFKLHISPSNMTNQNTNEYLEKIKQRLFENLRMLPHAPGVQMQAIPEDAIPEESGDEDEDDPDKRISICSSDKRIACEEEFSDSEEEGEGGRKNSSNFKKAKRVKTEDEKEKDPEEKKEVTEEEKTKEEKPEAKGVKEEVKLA

B1: ELM2-SANT domain of MTA1 (residues 162-335) (domain or fragment, UniProt Q13330 162-335, looked up)
chain: ADKGEIRVGNRYQADITDLLKEGEEDGRDQSRLETQVWEAHNPLTDKQIDQFLVVARSVGTFARALDCSSSVRQPSLHMSAAAASRDITLFHAMDTLHKNIYDISKAISALVPQGGPVLCRDEMEEWSASEANLFEEALEKYGKDFTDIQQDFLPWKSLTSIIEYYYMWKTTDR
As for B1, the binding result (in data set [1]; in “crystal structure”) was “binds” in each case.

These data come from publication PMC3710971 (Molecular Cell, 2013).
